Experimental data reported in patent US12365732 (23ANDME, dated 2025).

T1: hu-CD96 (soluble, isoform 2 extracellular domain) (human, UniProt P40200 22-516, biotinylated in Octet and blocking ELISA)
T1 construct: the assays name only hu-CD96; also called hCD96; biotinylated hu-CD96
T1 sequence: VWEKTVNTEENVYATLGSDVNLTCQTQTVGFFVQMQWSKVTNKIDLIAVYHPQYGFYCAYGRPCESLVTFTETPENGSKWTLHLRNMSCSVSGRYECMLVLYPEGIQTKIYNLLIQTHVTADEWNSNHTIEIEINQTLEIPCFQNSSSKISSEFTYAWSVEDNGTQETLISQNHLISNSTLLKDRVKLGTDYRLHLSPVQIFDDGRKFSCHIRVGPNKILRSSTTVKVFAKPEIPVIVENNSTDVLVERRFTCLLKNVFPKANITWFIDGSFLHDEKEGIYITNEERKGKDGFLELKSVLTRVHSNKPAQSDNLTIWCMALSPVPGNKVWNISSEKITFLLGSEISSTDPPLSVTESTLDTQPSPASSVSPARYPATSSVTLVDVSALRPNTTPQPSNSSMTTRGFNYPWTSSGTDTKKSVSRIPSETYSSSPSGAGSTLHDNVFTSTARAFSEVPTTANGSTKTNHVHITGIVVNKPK


Columns and labels:
[1] = biological target: T1, hu-CD96 (soluble, isoform 2 …); assay: BLI (Octet), biotin-CD96 on SA, Fab analyte
Method: The binding affinity of the generated Fab variants of mAb1.v7 for hu-CD96 and cy-CD96 was determined by OCTET (Pall ForteBio) Bio-Layer Interferometry (BLI) binding analysis. The biotinylated hu-CD96 or biotinylated cy-CD96 was diluted to a final concentration 10 µg/mL in experimental buffer (PBS buffer with 0.01% Tween-20) and immobilized on the Streptavidin Capture (SA) biosensors (Pall ForteBio). Three-fold serial dilutions of the mAb1.v7 Fab variants starting at 1 µM as analytes were diluted in the experimental buffer (PBS buffer with 0.01% Tween-20). The biosensors were equilibrated in experimental buffer at 30° C. for ten minutes prior to starting the experiment. The kinetics experiment was performed with the following steps, where the step name, solution and time are listed: Baseline (buffer—60 seconds), Loading (biotinylated antigen—200 seconds), Baseline 2 (buffer—minimum 120 seconds), Association (analyte—200-300 seconds) and Dissociation (buffer—1000 seconds). The resulting BLI signal from analyte association and dissociation from the […] was analyzed using the Octet Data Analysis software (Pall ForteBio). First a reference subtraction was performed on all recorded traces using the reference well (biosensor that underwent same steps as experimental wells but no analyte for the Association step) and then all the traces were aligned to the beginning of the Association step. The entirety of the Association and Dissociation steps were used in a Global fit (minimum of four analyte concentration traces) in a 1:1 binding model to calculate the K_D values for the 16 selected individual mAb1.v7 Fab variants as summarized in Table 9 (below).

[2] = biological target: T1, hu-CD96 (soluble, isoform 2 …); assay: phage competition ELISA, soluble CD96 vs coated hu-CD96
Method: 192 colonies from most stringent selections (biotinylated 0.1 nM of hu-CD96 or cy-CD96 with 1000× non-biotinylated human or cy-CD96) were grown in 400 µL 2YT with 4 µL helper phage M13KO7 overnight at 37° C. with shaking. After spinning down the pellet, the phage supernatant was diluted 1:1 with 2 nM hu-CD96, 20 nM cy-CD96 and ELISA buffer (0.5% BSA and 0.05% TWEEN®20 in PBS) in total […] and incubated for two hours at room temperature with agitation. The […] of mixture was transferred to hu-CD96 coated plate for 15 min to capture unbound phage. The plate was washed with wash buffer (0.05% TWEEN®20 in PBS), and HRP-conjugated anti-M13 antibody (Sino biological, Cat #11973-MM05-H-50) was added in ELISA buffer for 30 min. […] Enzymatic color development was stopped using TMB stop solution (VWR, Cat #95059-200). Plates were analyzed with a SpectraMax i3X plate reader (Molecular Devices). The % inhibition was calculated by the $OD450$ of wells with hu-CD96/cy-CD96 competitor divided by $OD450$ of wells with buffer alone. The lower % inhibition indicated higher phage $IC50$ against hu-CD96 or cy-CD96.
Selected top inhibition % phage variants from single spot competition were purified from culture supernatants. The optimal phage concentration was incubated with serially-diluted hu-CD96 or cy-CD96 in ELISA buffer in NUNC F plate for two hours. The […] of the mixture was transferred to hu-CD96 coated wells for 15 min to capture unbound phage. The plate was washed with wash buffer (0.05% TWEEN®20 in PBS), and HRP-conjugated anti-M13 antibody (Sino biological, Cat #11973-MM05-H-50) was added in ELISA buffer for 30 min. The plates were washed and developed as described above. The absorbance at 450 nm was plotted as a function of antigen concentration in solution to determine phage $IC50$.

[3] = biological target: T1, hu-CD96 (soluble, isoform 2 …); assay: ELISA, blocks biotin-CD96 binding to coated hu-CD155-mFc
Method: The selected 5 affinity matured Fab variants of mAb1.v7 Fab were assayed for blocking of human CD155 (hu-CD155) receptor by ELISA as follows. Briefly, 96-well MAXISORP® flat bottom plates (Thermofisher, Cat #439454) were coated overnight at 4° C. with 2 µg/mL goat anti-mouse Fc (Thermofisher, Cat #31168) in PBS. After removing the coating solution, unspecific binding was blocked with PBS containing 1% bovine serum albumin (BSA) and incubation at room temperature for one hour. Plates were then washed five times in PBS with 0.05% TWEEN®-20 (wash buffer) and added […] hu-CD155-mFc in PBS for 1 hour in room temperature. During blocking period, 50 µL/well of 4 nM biotinylated hu-CD96 or 40 nM biotinylated cy-CD96 with serial dilution of the Fab variants 50 µL/well (starting at 2 µM, 1:3 dilution) for two hours at room temperature with PBS containing 0.5% BSA and 0.05% Tween 20 (ELISA buffer) in NUNC F plate (Thermofisher, Cat #269620). Then transferred the antigen-antibody mix solution 80 µL/well into hu-CD155-mFc coated wells at room temperature for 15 min. Plates were then washed with wash buffer to which was added 50 µL/well Streptavidin poly-HRP (Thermofisher, Cat #21140) diluted 1:5000 in ELISA buffer at room temperature for one hour with agitation. […] Enzymatic color development was stopped with 50 µL/well of TMB stop solution (VWR, Cat #95059-200). Plates were analyzed with a SpectraMax i3X plate reader (Molecular Devices) at 450 nm. […] The blocking $IC50$ values for the mAbv1.7 and the 5 selected affinity matured Fab variants (mAb1.v7.2, mAb1.v7.9, mAb1.v7.16, mAb1.v7.48, mAb1.v7.70) are summarized in Table 10 (above).

Row | apparent Kd (pooled screen) [1] [nM] | apparent IC50 (pooled screen) [2] [nM] | apparent IC50 (pooled screen) [3] [nM] | Kd [1] [nM] | IC50 [2] [nM] | IC50 [3] [nM] | Binder
1 | 76 | 0.5 | 0.74 |  |  |  | mAb1.v7 Fab (Fab, V domains shown) VH: EVQLVQSGAEVKKPGASVKVSCKASGFTFTNNWMHWVRQAPGQGLEWIGMIHPNSGITNINEKFKNRVTMTTDTSTSTAYMELRSLRSEDTAVYYCRSDGTYEGYFDYWGQGTLVTVSS VL: DIQLTQSPSSLSASVGDRVTITCKASQNVGTAIVWYQQKPGKAPKVLIYSASTRYTGVPSRFSGSGSGTDFTLTISSLQPEDFATYYCQQYSSSPLTFGQGTKVEIK
2 |  |  |  | 1.4 | 0.1 | 0.8 | mAb1.v7.16 Fab (Fab, V domains shown, also called M34R/T97V) VH: EVQLVQSGAEVKKPGASVKVSCKASGFTFTNNWRHWVRQAPGQGLEWIGMIHPNSGITNINEKFKNRVTMTTDTSTSTAYMELRSLRSEDTAVYYCRSDGVYEGYFDYWGQGTLVTVSS VL: DIQLTQSPSSLSASVGDRVTITCKASQNVGTAIVWYQQKPGKAPKVLIYSASTRYTGVPSRFSGSGSGTDFTLTISSLQPEDFATYYCQQYSSSPLTFGQGTKVEIK
3 |  |  |  | ~0.1 | 0.11 | 0.42 | mAb1.v7.9 Fab (Fab, V domains shown, also called M34R/P52aM/T97V) VH: EVQLVQSGAEVKKPGASVKVSCKASGFTFTNNWRHWVRQAPGQGLEWIGMIHMNSGITNINEKFKNRVTMTTDTSTSTAYMELRSLRSEDTAVYYCRSDGVYEGYFDYWGQGTLVTVSS VL: DIQLTQSPSSLSASVGDRVTITCKASQNVGTAIVWYQQKPGKAPKVLIYSASTRYTGVPSRFSGSGSGTDFTLTISSLQPEDFATYYCQQYSSSPLTFGQGTKVEIK
4 |  |  |  | 3.75 | 0.08 | 0.7 | mAb1.v7.2 Fab (Fab, V domains shown, also called M34R/P52aF/T97V) VH: EVQLVQSGAEVKKPGASVKVSCKASGFTFTNNWRHWVRQAPGQGLEWIGMIHFNSGITNINEKFKNRVTMTTDTSTSTAYMELRSLRSEDTAVYYCRSDGVYEGYFDYWGQGTLVTVSS VL: DIQLTQSPSSLSASVGDRVTITCKASQNVGTAIVWYQQKPGKAPKVLIYSASTRYTGVPSRFSGSGSGTDFTLTISSLQPEDFATYYCQQYSSSPLTFGQGTKVEIK
5 |  |  |  | ~0.1 | 0.14 | 0.8 | mAb1.v7.70 Fab (Fab, V domains shown, also called N32R/P52aA/T97V) VH: EVQLVQSGAEVKKPGASVKVSCKASGFTFTNRWMHWVRQAPGQGLEWIGMIHANSGITNINEKFKNRVTMTTDTSTSTAYMELRSLRSEDTAVYYCRSDGVYEGYFDYWGQGTLVTVSS VL: DIQLTQSPSSLSASVGDRVTITCKASQNVGTAIVWYQQKPGKAPKVLIYSASTRYTGVPSRFSGSGSGTDFTLTISSLQPEDFATYYCQQYSSSPLTFGQGTKVEIK
6 |  |  |  | ~0.1 | 0.1 | 0.42 | mAb1.v7.48 Fab (Fab, V domains shown, also called N32R/P52aH/T97V) VH: EVQLVQSGAEVKKPGASVKVSCKASGFTFTNRWMHWVRQAPGQGLEWIGMIHHNSGITNINEKFKNRVTMTTDTSTSTAYMELRSLRSEDTAVYYCRSDGVYEGYFDYWGQGTLVTVSS VL: DIQLTQSPSSLSASVGDRVTITCKASQNVGTAIVWYQQKPGKAPKVLIYSASTRYTGVPSRFSGSGSGTDFTLTISSLQPEDFATYYCQQYSSSPLTFGQGTKVEIK
